# Source: the DeepSol protein solubility set
# Assay: soluble on expression in E. coli; label from the status in PepcDB or PDB records
row,Sequence,soluble on expression in E. coli
1,MTYPIPKPREKSRWPNLSQGSLPLALARYLPHKRLKVVLTQDAEQALRLQTAWRFFRPHDTAVFLPDWETLPYERFSPHQDLVSERLSALWQIKSGAADVLFVPVATAMQKLPPVPFLAGRTFWLKTGQTLDIGRLKSDLVDAGYNHVSHVVAAGEFAVRGGIVDLFPMGSEMPYRIDLFDDEIDSIKTFDTETQRTISPVSEIRLLPAHEFPTDSEAQKIFRSRFREEVDGNPNDAAVYKAVSNGHFGAGVEYYLPLFFENELETLFDYIGEDALFVSLDDVHAEANRFWSDVKSRYAMAQGDETYPPLLPQYLYLSADVFAGRLKNYGQVLPDVSGKEYTLPDLAVNRQADEPLQALKDFQTAFDGRILLCAESLGRRETMLGFLQQNGLKAKPVSDWQGFLSAHEPLMITVAPLAYGFKLGGLQSPNQQQPTPSPVGEGWGEGKAVAAQTEFSAAAINPLPSPLPQEREQSAAAVSDSLKAAAVSTESSLPLGTSNLHGQIRQQPAPSPVGEGWGEGKAVAAQTEFPASATNPLPSPLPQEREQSAAAVSDDLKTKSSLHPVANNLHGQIRQQPTPSPVGEGWGEGKAVAAQTEFSAAATNPLPSPLPQEREQSAAVVSDSLKAAAVSTESSLPPGKSNLHGQIQQQPAPSPVGEGWGEGKAVAAQSAIAVITESDLYQYVARSRIHNRRKKHAAVSDGLLRDLAEINIGDPVVHEEHGIGRYMGLVTMDLGGETNEMMLLEYAGEAQLYVPVSQLHLISRYSGQAHENIALHKLGSGAWNKAKRKAAEKARDTAAELLNLYAQRAAQSGHKFEINELDYQAFADGFGYEETEDQAAAIAAVIKDLTQAKPMDRLVCGDVGFGKTEVALRAAFVAVMGGKQVAVLAPTTLLVEQHAQNFADRFADFPVKVASLSRFNNSKATKAALEGMADGTVDIVIGTHKLVQDDIKFKNLGLVIIDEEHRFGVRQKEQLKRLRANVDILTMTATPIPRTLSMALEGLRDFSLITTAPSRRLAVKTFVKPFSEGSVREAVLRELKRGGQVFFLHNEVDTIENMRERLETLLPEARIGVAHGQLRERELEQVMRDFLQQRFNVLLCSTIIETGIDIPNANTIIINRADKFGLAQLHQLRGRVGRSHHQAYAYLLTPEYITKDAEKRLDAIAAADELGAGFTLAMQDLEIRGAGEILGEGQSGEMIQVGFTLYTEMLKQAVRDLKKGRQPDLDAPLGITTEIKLHSPALLPEDYCPDIHERLVLYKRLAVCETVQQINTIHEELVDRFGLPEQPVKTLIESHHLRLMAKELGIDAIDAAGEAVTVTFGKNNNVDPTEIILLIQNDKKYRLAGADKLRFTAEMENIEVRINTVKNVLKTLQNRCLPK,not soluble
2,MNLYLITFQSSLNRIESVYDCHKDLFVEIEKFFTLHLVPYTEAASIPADAYRMAFIASGGVEKMVTQHFELLPYPIHLLTDGQQNSLAASLEIATWIRSKGMKVHIIHGTIPNMVKQLIDHHKAFAAQREVRGKRIGVVGYSSPWLVASNVDYLLAKRRWGIEFIDIPMEEVYCLFYQIKDDDIGYEASVFANRAIACREGTPEDLLKAMRLYQAVKIICEKKKLDAVTLSCFSLIEKLGTTGCLALALLNDEGIPAGCEGDLQSIFTLLIAKTLTGQAGFMANPAFINDDQNEIVMAHCTIATKMVDQFIIRNHFETETGIAIQGILHPGGITMIKCAGECLDEYFVSTGQLIENTNYINACRTQARIKLDKPVDYFMRNPLGNHHIILMGDHEKVIHEFMQLNSCKLVE,not soluble
3,TLLHPLLMRNGDSRPLHKPTTPLPSLDLLTPPPSEVEPVDTFALEQMARLVEARLADFRIKADVVNYSPGPVITRFELNLAPGVKAARISNLSRDLARSLSTVAVRVVEVIPGKPYVGLELPNKKRQTVYLREVLDNAKFRDNPSPLTVVLGKDIAGEPVVADLAKMPHLLVAGTTGSGASVGVNAMILSMLYKAQPEDVRFIMIDPKMLELSVYEGIPHLLTEVVTDMKDAANALRWCVNEMERRYKLMSALGVRNLAGYNEKIAEADRMMRPIPDPYWKPGDSMDAQHPVLKKEPYIVVLVDEFADLMMTVGKKVEELIARLAQKARAAGIHLVLATQRPSVDVITGLIKANIPTRIAFTVSSKIDSRTILDQAGAESLLGMGDMLYSGPNSTLPVRVHGAFVRDQEVHAVVQDWKARGRPQYVDGITSDSESEGGAGGFDGAEELDPLFDQAVQFVTEKRKASISGVQRQFRIGYNRAARIIEQMEAQGIVSEQGHNGNREVLAPPPFD,soluble
4,MAPKTIFITGANRGIGLGLVRELLKVPGVEALVAGARNIDGAKELQSLAKADARLHLIAVDVSNDGSLENSVKSVSGIVGDRGLNLLINNAGLIESYGTTSAPNRASVLHCIDVNAVSALLASQHFLPLLQKAASHVSGDSLTPDRAAIVNIGSDCASQALNLRGSGPSNSLLAYKMSKVAMLSFSRSMAADFKRLEIPVLITNIHPGWVQTDMGGSNAEISVDESVTKIVASIAKLNGGHQGGLFNRELEEMPL,not soluble
5,MGSDKIHHHHHHMNHIGTREIATERLTLRRFEIEDAENMFYNWANDPEVTKYLTWPAHESVDTTETILKEWISKYDEKDFYQWAIELNDLEQPIGTISAIKTDERVESVEIGYCIGKRFWNNGYMTEALTAIIRFFINEVGAGRIWARHDTENPNSGKVMVAAGMDYEGTLRHAGFNNQGICDEAVYAKVRSAALDEEPEEETPEQQAVTTKVMGEDGVMRNVISDETMEYVGILAKLELSPEEAEAAKKDMADMLDYIDKLEELDTSGIEPMSHVFPVNNVFRDDVVTNGDGSEATLANAPVKKDGGFKVPKTIGE,not soluble
6,MDFDYVIAGGGSAGCTLAARLSEDPSKTVCLIEAGGAGSNLLIRAPAGIIALLPGRPKINNWAFETVPQQGLGGRKGYQPRGKALGGSSAINAMLYTRGHRGDYDEWADLGCDGWSWDEVLPYFRRAEGNQRGADALHGGDGPLRVAEQQEPRPLSRAFVEACGENQIRRNDDFNGVEQEGAGLYQVTQFWGERRNGERCSVAAAYLQPAMNRSNLTVITGAHATAVILDGKRATGVRYRAGKDEAVAKARREVIVCGGAFGSPQLLLLSGIGPAAELAMHGIPVIHELPGVGKNLQDHLDFIMGWTSKDADMMGIGLRGLPGLLRHMLRWRKDGGGMIATPYAEGGAFLKSDPAIERPDLQLHFCIAIVDDHGRKLHMGYGFSCHVCVLRPHSRGEVGLSTHDPMAPPRIDPRFLSDERDAELLLKGVRMMRGILEAPALARYRHKEIYTAGVSSDADLMSHIRARADTIYHPAGTCKMGVDELAVVDPQLRVHGLEALRVVDASVMPTLIGGNTNAPTIMIAEKAADMIKAAALEHHHHHH,not soluble
7,MCICPNRQTAASVGQRYGEPVVLRVDAGRMHRNGLPFFKADNGVWLTAQVPAAFLTRPRLEHHHHHH,not soluble
8,MGSDKIHHHHHHMNLRVLGKILLDEMRNGDVAIVEYSSSSPIHRLVWGEIILKYVDRYEFVIDDFFGIGDVMFRTYLRRISSPDEYTKIMEKTKNIKAIKIGPGKISYASKVEELPLTYNLSEFIKLYYPIIRDILAKSSKRVFFITLGLSQYLYLGEAKALETILLSRSVLPIEDWTSIYFLNTDVAPEKAVAALEEISPIVIQVRNNEILVKKI,not soluble
9,MSLGQEEAGKLLDSLAEPSKKAYRINSLKEGAVVYPQEEAVPGIPNAYYGEVSGKDPEWTAGLVYSQDPAAMFPAQAIPVKPGDKVLDLCAAPGGKSTALAQKLQGEGLLVANEISPSRAKILRENLERWGVSNAVVTNCDSFALSARFPGFFDAILVDAPCSGEGMFRKSEDAIKYWSQENVDLCADRQREILTEAVKMLKPGGYLLYSTCTFSPEEDEEIVSWLLDEYGFKLLPIAAEKAAPGRPEWGNGDASLANCARFWPQDGVGEGQFVASLQKAAGEESFAAEAGEVFSPVRKNKDKKKKGKGKNKGNRSSLERPSKEESCYISEAIAGFNWPESLASWPSQMLKSQDHVFVPALEPEQLKGIKVLSNGLELGILKKKRFEPSHQLAEVLGQVDQERVVDLTEEEYDHYLHGESLQVNSSLKGFVLVSCRGMIFSFGKLSGKGQLKNYYPKGLRQKGIITITTDPNSSSVDKLAAALEHHHHHH,soluble
10,MEVLGITEKALNYYRENVKDNKTITPDQALLKMIRNVLLVKETHPERVKKRLFCTEYAYGNMIIKVNRKKQVFEIVNKSGCFSDQNDWKFPKRRYIELSKELGIKDCKFRKITYSKKNHNKQKLEHHHHHH,soluble
11,MLFSMESILSSTKPKLEPPPKLEPEVTINEQVVDLPRSNTRLSEPSTSASVLEHDLKFGESRKRSRSLGDEPTEDEDGVPVRKANKRNHSTSSAADSSSDDAKDDDDDDDSTSRKSMSGHRKSSHAKPPYSYIALIAMSILNSPEKKLTLSEICEFIINKFEYYKEKFPAWQNSIRHNLSLNDCFVKVARGPGNPGKGNYWALDPNCEDMFDNGSFLRRRKRYKKNSDTYHEMMSHHPMPFPPFLPQGMPFPPRMMHPMANIPMLGHPMNPRAVPNMPAFFIPQNIDSQKLLSMMASRIMPMDAPVSSGQKRTSSSSSPNENGSSAVSDKLSA,soluble
12,MGQDHIRYDILAQDALRGVIRKVLGEVAATGRLPGDHHFFITFLTGAPGVRISQHLKSKYAEQMTIVIQHQFWDMKVTETGFEIGLSFSDTPEKLVIPYNAIRGFYDPSVNFELEFDVPLAKEEEMEEAEITAYPVSHEAKPASETPKSGEEKKEGSVVSLDAFRKKQLEHHHHHH,soluble
13,MGSSHHHHHHSSGLVPRGSHMIRNRVMNSVVNKYLLHNRSIMFKNDQDVERFFYKREIENRKKHKQPSTLNVKANLEKLSLDDMQVFRFNFRHQIDKKILYIHGGFNALQPSPFHWRLLDKITLSTLYEVVLPIYPKTPEFHIDDTFQAIQRVYDQLVSEVGHQNVVVMGDGSGGALALSFVQSLLDNQQPLPNKLYLISPILDATLSNKDISDALIEQDAVLSQFGVNEIMKKWANGLPLTDKRISPINGTIEGLPPVYMFGGGREMTHPDMKLFEQMMLQHHQYIEFYDYPKMVHDFPIYPIRQSHKAIKQIAKSIDEDVTQNN,soluble
14,MKKVTKSIKREGSPSDEEYTLEEDPIEFELEKMERGSSNGESEEESQRDQKQADSIIDDMVEQNDQEQEAAGEQDVERENDLRKMYELSLLPPAAIAAQIQQMEKEIYELSQWEARELIRSKHLRIFGNCRRRANKLEHHHHHHH,not soluble
15,MAHHHHHHMSSAVVKPSNGEMPKTKEQKEMKNEYQVETNKELQVNLNFHNNNIISNIFSNLSLFDYLTNIFTINKKTYMLKYCNKLNEDNFYISYFQKENDKFAQISPWHDIDLMNEDGTYNMVVEITKYNYIKLEIQLKENFNVIKQDTKKGKLRYYHNSIYWNYGALPRTYEYPKHIYTCQTGDNQDLFFTGDDDPLDVVDVGQNSLKMGQVVPVKVGSMQSHMTYM,not soluble
16,MAKNHYDILRRHIRSEDLLETPEFGSGSRIVEEYWIQEPFTKAIIVENEDEFRNVYYALEPTVSSEEAEVISALYDDLKKILVLQDVSVDLEERAEVLVRAIEKLSKEYAVSFTDNFYSRMLYYLFRDFFGYGLIDPLMEDTNVEDISCDGYNIPIFIYHQKYGNVETNIVLDQEKLDRMVLRLTQRSGKHISIANPIVDATLPDGSRLQATFGTEVTPRGSSFTIRKFTIEPLTPIDLIEKGTVPSGVLAYLWLAIEHKFSAIVVGETASGKTTTLNAIMMFIPPDAKVVSIEDTREIKLYHENWIAEVTRTGMGEGEIDMYDLLRAALRQRPDYIIVGEVRGREAQTLFQAMSTGHASYSTLHAGDINQMVYRLESEPLKVPRSMLQFLDIALVQTMWVRGNTRLRRTKEVNEILGIDPVDKNLLVNQFVKWDPKEDKHIEVSMPKKLEKMADFLGVSVQEVYDEMLSRKRYLELMLKRGIRNYKEVTRYIHAYYRNPELAMTKMEEGL,soluble
17,ETGGERQLSPEKSEIWGPGLKADVVLPARYFYIQAVDTSGNKFTSSPGEKVFQVKVSAPEEQFTRVGVQVLDRKDGSFIVRYRMYASYKNLKVEIKFQGQHVAKSPYILKG,soluble
18,MMRGGMGNMQKMLKQMQKMQKEMQKAQEELAEKTVEGTAGGGMVTVVANGHKQILEVKIKEEVVDPDDIEMLQDLILAATNDALKKADELANEMMGQFTKGLNIPGLF,not soluble
